{
  "source": "patent US20220380421",
  "tested_on": "GST-AcrIIA16_Lmo",
  "data": [
    {"substance": "Myc-tagged SpyCas9-sgRNA", "values": [
      {"measurement": "target DNA cleavage by SpyCas9 co-immunoprecipitated with the Acr", "result": "SpyCas9 co-purified with AcrIIA16Lmo is not inhibited"}
    ]}
  ]
}
